Experimental findings from paper PMC2196230 (The Journal of Experimental Medicine, 1997) are described below.

The data set deals with the molecule itself. The data set is described as follows: SEC. A general note: SEC sorts molecules by how far they enter the pores of the column.

B1: recombinant soluble signaling lymphocytic activation molecule (sSLAM) with a Flag sequence at the carboxy terminus (natural protein, human, UniProt Q13291-3 21-305, looked up)
chain: ASYGTGGRMMNCPKILRQLGSKVLLPLTYERINKSMNKSIHIVVTMAKSLENSVENKIVSLDPSEAGPPRYLGDRYKFYLENLTLGIRESRKEDEGWYLMTLEKNVSVQRFCLQLRLYEQVSTPEIKVLNKTQENGTCTLILGCTVEKGDHVAYSWSEKAGTHPLNPANSSHLLSLTLGPQHADNIYICTVSNPISNNSQTFSPWPGCRTDPSGKTNHYQTTVEKKSLTIYAQVQKPGPLQKKLDSFPAQDPCTTIYVAATEPVPESVQETNSITVYASVTLPES
Turning to B1, the “stoichiometry N” value was 2.

As usually defined, the stoichiometry N is a count of units in the complex or per binding partner.
